Laboratory results from the supplement of paper PMC12042874.
± gives the uncertainty stated by the source.

Test: amyloid nucleation score (Sup35N fusion, yeast selection) (log enrichment); library NNK1; higher = more nucleation; inactive = no reads after selection
Method in brief: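 The nucleation score is the log enrichment of output over input reads, calculated with DiMSum and centred on the mode score of non-aggregating sequences. Sequences with under 100 input reads were excluded. Reads came from Illumina sequencing of plasmid inserts from psi-negative yeast expressing Sup35N fused to peptides of 20 random codons, induced 24 hours with 100 μM copper sulfate and grown 7 days at 30°C without adenine and uracil.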

For HECRWRTVYNQ, the amyloid nucleation score was 0.786 ± 0.93.

In the case of SYHSMA, the amyloid nucleation score is reported as “inactive”.

MYREYLGRSRRQFYFGTGKH showed an amyloid nucleation score of 3.82 ± 0.16.

Substance LSLRDLGSLALRGLKMNATR has an amyloid nucleation score of -0.397 ± 0.91.

SWSPRHELPLGKLRWIWDRG showed an amyloid nucleation score of 1.03 ± 0.75.

Substance KANCCCVSHWCCGYMQ has an amyloid nucleation score of 4.63 ± 0.052.

With ISICYRIEKRE the amyloid nucleation score was “inactive”.

IIIEVSQTDTV gave an amyloid nucleation score of -0.292 ± 0.79.

With KQLDINRLTSDMS the amyloid nucleation score was “inactive”.

In the case of DDLLH, the amyloid nucleation score is reported as 0.387 ± 0.79.

DFSLSSPRFLFGDGCRNCNA gave an amyloid nucleation score of -0.028 ± 0.36.

For RVRLVWSSCQGDEGFYGLCP, the amyloid nucleation score was 1.36 ± 0.18.

In the case of NTGIS, the amyloid nucleation score is reported as -1.22 ± 1.4.

In the case of CNPEGYRAHVLCFLNFA, the amyloid nucleation score is reported as 3.63 ± 0.092.

TTIRYNVLRAPMLCIIILMN showed an amyloid nucleation score of -0.607 ± 0.58.

CLPNSYGAV showed an amyloid nucleation score of 0.435 ± 0.53.

AFDGVS gave an amyloid nucleation score of -0.096 ± 1.7.

Substance DFGRFTGSG has an amyloid nucleation score of -0.824 ± 2.1.

For FYPRM, the amyloid nucleation score was 0.781 ± 0.54.

YYWVT showed an amyloid nucleation score of -1.16 ± 2.4.

For RGGTMGYILDNKCQNFVGTW, the amyloid nucleation score was “inactive”.

PVDVGYIRIPP showed an amyloid nucleation score of 0.093 ± 0.87.

YKYINSVQIYEHV showed an amyloid nucleation score of 4.19 ± 0.13.

With QSLFFPFARFVTNILRYYKF the amyloid nucleation score was -0.531 ± 0.45.

ARRRF gave an amyloid nucleation score of -0.345 ± 1.7.

For NGYIKRVFFSVNMFSMHTSF, the amyloid nucleation score was 0.079 ± 0.48.

In the case of NNVAGCLEFHRYQGMCGRSM, the amyloid nucleation score is reported as 1.04 ± 0.36.

Substance DMGSHIARSTKMVPICGGSR has an amyloid nucleation score of -0.259 ± 1.4.

For GRSRTRTRLLPGSEGGYDRP, the amyloid nucleation score was -1.64 ± 0.98.

For MGTRILSRTFVVYTTPGYCW, the amyloid nucleation score was 0.093 ± 0.27.

With RIRTIPFAPRNESPRCIGKF the amyloid nucleation score was -1.5 ± 0.86.

Work on FFRRNHGYNI yielded an amyloid nucleation score of 0.092 ± 0.43.

NSGVVRLFPYFMYRTAWLKS gave an amyloid nucleation score of 0.224 ± 0.41.

GFFFVFHYSGTHGLICCYTL gave an amyloid nucleation score of -0.22 ± 0.41.

For DGTNSVRIASWLNIDEGAL, the amyloid nucleation score was -0.225 ± 0.42.

With YGPSNYTIAQSS the amyloid nucleation score was -0.234 ± 0.43.

For RTSPN, the amyloid nucleation score was -0.141 ± 0.37.

In the case of HMSHMLLQIYLWLVFWSSGV, the amyloid nucleation score is reported as 1.42 ± 0.66.

Work on NGMIFFVIGMNFGCQESSRN yielded an amyloid nucleation score of 6.208 ± 0.051.

With FFLSLARVGVILHPMMVLTG the amyloid nucleation score was -0.35 ± 0.64.

Work on CTEKMIFTDLHRLRVVYKYT yielded an amyloid nucleation score of -0.59 ± 1.6.

Work on KPEFVNWIC yielded an amyloid nucleation score of 0.083 ± 0.32.

For MMGIMYLWTWYCN, the amyloid nucleation score was 0.385 ± 0.58.

Substance SMAPGDSS has an amyloid nucleation score of 0.02 ± 0.34.

With YKWLLAGGNTKCSKVRNAYW the amyloid nucleation score was -0.356 ± 0.39.

In the case of VLYMVEACLVWGIRQSESAV, the amyloid nucleation score is reported as 0.393 ± 0.73.

With DYESSVGRSQDLAY the amyloid nucleation score was -0.745 ± 2.4.

In the case of FFTRGIVMQRRQHWNGVYGS, the amyloid nucleation score is reported as 0.737 ± 0.49.

For SCAASGNLYVSSAGGVRGKR, the amyloid nucleation score was -0.734 ± 0.46.

For VRVLGVIMYARLLPVGLWGY, the amyloid nucleation score was “inactive”.

In the case of GVSMFHRFSSHNWMCCWFVG, the amyloid nucleation score is reported as 7.654 ± 0.064.

In the case of RIVRRFAGLISSI, the amyloid nucleation score is reported as “inactive”.

For SLRSQCGSVNLIFMVMFSVW, the amyloid nucleation score was -0.236 ± 1.2.

With CMHEKIYIITCRSCGLREIR the amyloid nucleation score was 0.164 ± 0.39.

With SLLCYRRGSWGEYIMFNGRL the amyloid nucleation score was -0.366 ± 0.84.

In the case of TLPYSKKSLTQFRRGAKICY, the amyloid nucleation score is reported as 0.588 ± 0.56.

Work on RMVLPVSNLFCAFPGTGGGS yielded an amyloid nucleation score of -0.577 ± 0.32.

Work on YSYLV yielded an amyloid nucleation score of -0.716 ± 0.84.

For YFAPFRGTSWFTRSCN, the amyloid nucleation score was -0.011 ± 0.79.

FLQRIKNHAVSAGWIYSLSK showed an amyloid nucleation score of 0.106 ± 0.43.

For TDVSVKLSVMMH, the amyloid nucleation score was 1.53 ± 0.16.

With TVQWAEN the amyloid nucleation score was 0.292 ± 0.63.

In the case of YVRRSCSSRESYSCNCLYVY, the amyloid nucleation score is reported as 0.532 ± 0.92.

For LLGASLNVKPESDFLLPAKR, the amyloid nucleation score was 0.175 ± 0.41.

FADERIGYSIK showed an amyloid nucleation score of -0.336 ± 0.44.

With MIWVWNRYIIPYFRFCGATL the amyloid nucleation score was 0.268 ± 1.2.

SPVLIDVRGM showed an amyloid nucleation score of -0.413 ± 0.5.

For GIGVKSEGHVINDFYKLRER, the amyloid nucleation score was 0.002 ± 0.45.

IAVKQFSRPPVFYIYSSLEC showed an amyloid nucleation score of 0.642 ± 0.62.

PNFMMIWWVSTLRHNFTGLC gave an amyloid nucleation score of 2.19 ± 0.31.

NHVLVVGISNLSSCHWMPNF showed an amyloid nucleation score of 3.14 ± 0.12.

For LLRLRISEIGSRLIKVWKSW, the amyloid nucleation score was 0.155 ± 0.35.
